Measurements taken from PMC9499513 (Proceedings of the National Academy of Sciences of the …, 2022).

Biological target: histone H4 (X. laevis, UniProt P62799 1-103)
Assay: cryo-EM structure

binding result: binds
B1: IMPORTIN-4 (natural protein)
chain: MESAGLEQLLRELLLPDTERIRRATEQLQIVLRAPAALPALCDLLASAADPQIRQFAAVLTRRRLNTRWRRLAAEQRESLKSLILTALQRETEHCVSLSLAQLSATIFRKEGLEAWPQLLQLLQHSTHSPHSPEREMGLLLLSVVVTSRPEAFQPHHRELLRLLNETLGEVGSPGLLFYSLRTLTTMAPYLSTEDVPLARMLVPKLIMAMQTLIPIDEAKACEALEALDELLESEVPVITPYLSEVLTFCLEVARNVALGNAIRIRILCCLTFLVKVKSKALLKNRLLPPLLHTLFPIVAAEPPPGQLDPEDQDSEEEELEIELMGETPKHFAVQVVDMLALHLPPEKLCPQLMPMLEEALRSESPYQRKAGLLVLAVLSDGAGDHIRQRLLPPLLQIVCKGLEDPSQVVRNAALFALGQFSENLQPHISSYSREVMPLLLAYLKSVPLGHTHHLAKACYALENFVENLGPKVQPYLPELMECMLQLLRNPSSPRAKELAVSALGAIATAAQASLLPYFPAIMEHLREFLLTGREDLQPVQIQSLETLGVLARAVGEPMRPLAEECCQLGLGLCDQVDDPDLRRCTYSLFAALSGLMGEGLAPHLEQITTLMLLSLRSTEGIVPQYDGSSSFLLFDDESDGEEEEELMDEDVEEEDDSEISGYSVENAFFDEKEDTCAAVGEISVNTSVAFLPYMESVFEEVFKLLECPHLNVRKAAHEALGQFCCALHKACQSCPSEPNTAALQAALARVVPSYMQAVNRERERQVVMAVLEALTGVLRSCGTLTLKPPGRLAELCGVLKAVLQRKTACQDTDEEEEEEDDDQAEYDAMLLEHAGEAIPALAAAAGGDSFAPFFAGFLPLLVCKTKQGCTVAEKSFAVGTLAETIQGLGAASAQFVSRLLPVLLSTAQEADPEVRSNAIFGMGVLAEHGGHPAQEHFPKLLGLLFPLLARERHDRVRDNICGALARLLMASPTRKPEPQVLAALLHALPLKEDLEEWVTIGRLFSFLYQSSPDQVIDVAPELLRICSLILADNKIPPDTKAALLLLLTFLAKQHTDSFQAALGSLPVDKAQELQAVLGLS
